This note sets out measurements from patent US20190077860A1 (EISAI R AND D MANAGEMENT, published 2019).

Common to all, as to test: ELISA
Assay [1] concerns the target T1, human EphA8 extracellular region-SEAP-His protein (human, UniProt P29322 28-542).
T1 construct: extracellular domain; also called hEphA8-SEAP-His
T1 sequence (looked up): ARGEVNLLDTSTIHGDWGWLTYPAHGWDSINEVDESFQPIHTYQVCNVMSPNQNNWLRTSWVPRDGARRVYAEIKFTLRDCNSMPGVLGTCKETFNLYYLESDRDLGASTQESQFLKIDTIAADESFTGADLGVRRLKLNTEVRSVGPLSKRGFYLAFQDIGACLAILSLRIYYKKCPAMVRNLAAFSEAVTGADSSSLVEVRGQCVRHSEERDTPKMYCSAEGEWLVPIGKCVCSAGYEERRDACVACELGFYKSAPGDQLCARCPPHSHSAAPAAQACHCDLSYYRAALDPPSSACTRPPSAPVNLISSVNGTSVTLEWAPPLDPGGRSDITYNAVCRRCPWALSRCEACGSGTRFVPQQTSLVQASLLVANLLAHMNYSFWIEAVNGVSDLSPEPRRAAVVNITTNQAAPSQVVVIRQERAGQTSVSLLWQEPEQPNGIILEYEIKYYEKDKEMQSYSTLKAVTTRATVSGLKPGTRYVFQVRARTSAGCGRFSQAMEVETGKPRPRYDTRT

Assay [2] deals with T2, human EphA7 extracellular region-SEAP-His protein (human, UniProt Q15375 28-555).
T2 construct: extracellular domain; also called hEphA7-SEAP-His
T2 sequence (looked up): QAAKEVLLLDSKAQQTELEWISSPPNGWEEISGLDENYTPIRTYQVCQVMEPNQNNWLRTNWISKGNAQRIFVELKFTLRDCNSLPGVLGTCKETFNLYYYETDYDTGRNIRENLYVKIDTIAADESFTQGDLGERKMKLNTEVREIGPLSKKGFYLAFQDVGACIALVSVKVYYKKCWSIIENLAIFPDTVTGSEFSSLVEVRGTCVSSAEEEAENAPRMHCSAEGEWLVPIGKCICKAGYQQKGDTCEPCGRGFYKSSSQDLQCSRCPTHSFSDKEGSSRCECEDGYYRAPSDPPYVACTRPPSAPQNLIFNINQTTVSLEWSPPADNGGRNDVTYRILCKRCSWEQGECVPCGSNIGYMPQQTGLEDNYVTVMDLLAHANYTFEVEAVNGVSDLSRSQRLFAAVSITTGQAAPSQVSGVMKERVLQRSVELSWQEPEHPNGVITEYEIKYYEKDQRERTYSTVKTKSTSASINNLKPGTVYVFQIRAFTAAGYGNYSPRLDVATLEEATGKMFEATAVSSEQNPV

In assay [3] the target is T3, human EphA3 extracellular region-SEAP-His protein (human, UniProt P29320 21-541).
T3 construct: extracellular domain; also called hEphA3-SEAP-His
T3 sequence (looked up): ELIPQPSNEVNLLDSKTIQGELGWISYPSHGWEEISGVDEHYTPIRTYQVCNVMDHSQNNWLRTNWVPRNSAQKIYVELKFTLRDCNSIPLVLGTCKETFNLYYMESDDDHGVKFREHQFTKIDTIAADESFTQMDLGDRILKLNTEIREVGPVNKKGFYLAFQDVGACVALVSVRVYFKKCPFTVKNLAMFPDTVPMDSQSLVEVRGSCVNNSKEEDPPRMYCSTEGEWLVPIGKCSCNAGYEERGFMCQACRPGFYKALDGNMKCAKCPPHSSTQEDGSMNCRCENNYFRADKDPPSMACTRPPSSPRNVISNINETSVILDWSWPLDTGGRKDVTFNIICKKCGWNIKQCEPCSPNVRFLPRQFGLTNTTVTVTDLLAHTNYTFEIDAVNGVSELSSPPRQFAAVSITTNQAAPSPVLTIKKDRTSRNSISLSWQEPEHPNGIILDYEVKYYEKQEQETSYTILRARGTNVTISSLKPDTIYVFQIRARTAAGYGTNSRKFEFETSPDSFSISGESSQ

In assay [4] the target is T4, human EphA5 extracellular region-SEAP-His protein (human, UniProt P54756 25-573).
T4 construct: extracellular domain; also called hEphA5-SEAP-His

In assay [5] the target is T5, human EphA2 extracellular region-SEAP-His protein (human, UniProt P29317 24-537).
T5 construct: extracellular domain; also called hEphA2-SEAP-His

For assay [6], the target named is T6, human EphB4 extracellular region-SEAP-His protein (human, UniProt P54760 16-539).
T6 construct: extracellular domain; also called hEphB4-SEAP-His
T6 sequence (looked up): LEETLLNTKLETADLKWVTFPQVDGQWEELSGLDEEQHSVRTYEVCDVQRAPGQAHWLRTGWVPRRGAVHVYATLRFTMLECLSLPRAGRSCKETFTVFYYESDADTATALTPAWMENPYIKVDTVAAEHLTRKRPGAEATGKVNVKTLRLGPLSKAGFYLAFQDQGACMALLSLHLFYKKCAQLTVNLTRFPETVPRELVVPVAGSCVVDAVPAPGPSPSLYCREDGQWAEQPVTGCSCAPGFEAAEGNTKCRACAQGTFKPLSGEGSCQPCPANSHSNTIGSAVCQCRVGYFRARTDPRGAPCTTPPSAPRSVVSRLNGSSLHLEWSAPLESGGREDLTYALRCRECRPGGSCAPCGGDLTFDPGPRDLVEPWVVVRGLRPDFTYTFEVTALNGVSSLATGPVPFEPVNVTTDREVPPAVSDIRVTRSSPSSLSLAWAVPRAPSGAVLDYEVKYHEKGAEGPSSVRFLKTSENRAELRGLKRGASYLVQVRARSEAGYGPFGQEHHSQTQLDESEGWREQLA

T4 sequence (P54756 25-573): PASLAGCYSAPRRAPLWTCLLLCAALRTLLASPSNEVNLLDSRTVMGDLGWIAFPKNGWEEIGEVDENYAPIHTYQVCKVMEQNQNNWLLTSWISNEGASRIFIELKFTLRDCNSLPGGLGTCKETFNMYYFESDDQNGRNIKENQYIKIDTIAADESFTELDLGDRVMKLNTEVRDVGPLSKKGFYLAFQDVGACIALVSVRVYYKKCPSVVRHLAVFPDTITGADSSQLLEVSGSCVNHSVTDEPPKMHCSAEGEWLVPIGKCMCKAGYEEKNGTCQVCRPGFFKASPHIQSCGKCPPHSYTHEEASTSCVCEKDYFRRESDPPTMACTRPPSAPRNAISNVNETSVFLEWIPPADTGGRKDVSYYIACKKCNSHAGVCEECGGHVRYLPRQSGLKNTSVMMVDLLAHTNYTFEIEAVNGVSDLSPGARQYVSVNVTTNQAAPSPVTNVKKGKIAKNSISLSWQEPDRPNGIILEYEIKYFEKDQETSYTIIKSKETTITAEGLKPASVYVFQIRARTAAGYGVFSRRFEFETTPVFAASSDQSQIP
T5 sequence (P29317 24-537): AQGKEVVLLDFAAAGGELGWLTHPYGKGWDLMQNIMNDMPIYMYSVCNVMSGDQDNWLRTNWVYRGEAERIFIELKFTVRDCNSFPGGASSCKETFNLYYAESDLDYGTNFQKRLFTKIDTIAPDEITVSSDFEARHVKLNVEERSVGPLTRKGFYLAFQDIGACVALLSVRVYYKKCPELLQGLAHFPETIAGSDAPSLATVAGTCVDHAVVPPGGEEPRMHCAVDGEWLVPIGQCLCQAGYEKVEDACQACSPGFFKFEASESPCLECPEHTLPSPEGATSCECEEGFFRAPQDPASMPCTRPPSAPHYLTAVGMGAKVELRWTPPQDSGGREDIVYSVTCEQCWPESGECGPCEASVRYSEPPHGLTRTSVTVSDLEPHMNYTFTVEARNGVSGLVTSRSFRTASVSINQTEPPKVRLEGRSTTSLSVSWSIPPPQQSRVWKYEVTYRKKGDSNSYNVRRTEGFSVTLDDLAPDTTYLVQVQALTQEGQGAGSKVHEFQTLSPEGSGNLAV

B1: humanized antibody No. 141 (antibody, human IgG2)
heavy: QVQLVQSGSELKKPGASVKVSCKASGYTFTDYSMHWVRQAPGQGLEWMGWINTETGEPTYADDFKGRFVFSLDTSVSTAYLQISSLKAEDTAVYYCARIPLYYYGSRYWYFDVWGQGTTVTVSSASTKGPSVFPLAPSSRSTSESTAALGCLVKDYFPEPVTVSWNSGALTSGVHTFPAVLQSSGLYSLSSVVTVPSSNFGTQTYTCNVDHKPSNTKVDKTVERKSCVECPPCPAPPAAAPSVFLFPPKPKDTLMISRTPEVTCVVVDVSHEDPEVQFNWYVDGVEVHNAKTKPREEQFNSTFRVVSVLTVVHQDWLNGKEYKCKVSNKGLPAPIEKTISKTKGQPREPQVYTLPPSREEMTKNQVSLTCLVKGFYPSDIAVEWESNGQPENNYKTTPPMLDSDGSFFLYSKLTVDKSRWQQGNVFSCSVMHEALHNHYTQKSLSLSPG
light: DIQMTQSPSSLSASVGDRVTITCRASENIYRNLAWYQQKPGKAPKLLVYAATNLADGVPSRFSGSGSGTDYTLTISSLQPEDFATYYCQHFWGTPWTFGQGTKVEIKRTVAAPSVFIFPPSDEQLKSGTASVVCLLNNFYPREAKVQWKVDNALQSGNSQESVTEQDSKDSTYSLSSTLTLSKADYEKHKVYACEVTHQGLSSPVTKSFNRGEC
notes: human Ig kappa; also called L1-4/HK1
On to B1, for which the “A450 as % of hEphA4-SEAP-His” value in assay [1] was determined as 5.5%; in assay [2], 5.3%; in assay [3] it was 5.3%; in assay [4] it was 5.3%; in assay [5] it was 5.2%; in assay [6], 5.4%.

B2: humanized antibody No. 143 (antibody, human IgG2)
heavy: QIQLVQSGSELKKPGASVKVSCKASGYTFTDYSMHWVRQAPGQGLKWMGWINTETGEPTYADDFKGRFVFSLDTSVSTAYLQISSLKAEDTAVYYCARIPLYYYGSRYWYFDVWGQGTTVTVSSASTKGPSVFPLAPSSRSTSESTAALGCLVKDYFPEPVTVSWNSGALTSGVHTFPAVLQSSGLYSLSSVVTVPSSNFGTQTYTCNVDHKPSNTKVDKTVERKSCVECPPCPAPPAAAPSVFLFPPKPKDTLMISRTPEVTCVVVDVSHEDPEVQFNWYVDGVEVHNAKTKPREEQFNSTFRVVSVLTVVHQDWLNGKEYKCKVSNKGLPAPIEKTISKTKGQPREPQVYTLPPSREEMTKNQVSLTCLVKGFYPSDIAVEWESNGQPENNYKTTPPMLDSDGSFFLYSKLTVDKSRWQQGNVFSCSVMHEALHNHYTQKSLSLSPG
light: DIQMTQSPSSLSASVGDRVTITCRASENIYRNLAWYQQKPGKAPKLLVYAATNLADGVPSRFSGSGSGTDYTLTISSLQPEDFATYYCQHFWGTPWTFGQGTKVEIKRTVAAPSVFIFPPSDEQLKSGTASVVCLLNNFYPREAKVQWKVDNALQSGNSQESVTEQDSKDSTYSLSSTLTLSKADYEKHKVYACEVTHQGLSSPVTKSFNRGEC
notes: human Ig kappa; also called L1-4/HK4
As to B2, the “A450 as % of hEphA4-SEAP-His” value in assay [1] came to 6%; in assay [2], 5.8%; in assay [3] it was 5.6%; in assay [4], 6.1%; in assay [5], 5.7%; in assay [6] it was 5.9%.

B3: humanized antibody No. 142 (antibody, human IgG2)
heavy: QVQLVQSGSELKKPGASVKVSCKASGYTFTDYSMHWVRQAPGQGLKWMGWINTETGEPTYADDFKGRFVFSLDTSVSTAYLQISSLKAEDTAVYYCARIPLYYYGSRYWYFDVWGQGTTVTVSSASTKGPSVFPLAPSSRSTSESTAALGCLVKDYFPEPVTVSWNSGALTSGVHTFPAVLQSSGLYSLSSVVTVPSSNFGTQTYTCNVDHKPSNTKVDKTVERKSCVECPPCPAPPAAAPSVFLFPPKPKDTLMISRTPEVTCVVVDVSHEDPEVQFNWYVDGVEVHNAKTKPREEQFNSTFRVVSVLTVVHQDWLNGKEYKCKVSNKGLPAPIEKTISKTKGQPREPQVYTLPPSREEMTKNQVSLTCLVKGFYPSDIAVEWESNGQPENNYKTTPPMLDSDGSFFLYSKLTVDKSRWQQGNVFSCSVMHEALHNHYTQKSLSLSPG
light: DIQMTQSPSSLSASVGDRVTITCRASENIYRNLAWYQQKPGKAPKLLVYAATNLADGVPSRFSGSGSGTDYTLTISSLQPEDFATYYCQHFWGTPWTFGQGTKVEIKRTVAAPSVFIFPPSDEQLKSGTASVVCLLNNFYPREAKVQWKVDNALQSGNSQESVTEQDSKDSTYSLSSTLTLSKADYEKHKVYACEVTHQGLSSPVTKSFNRGEC
notes: human Ig kappa; also called L1-4/HK2
Turning to B3, the “A450 as % of hEphA4-SEAP-His” value in assay [1] is 5.7%; in assay [2], 5.5%; in assay [3], 5.5%; in assay [4], 5.7%; in assay [5], 5.6%; in assay [6] it was 5.7%.

B4: humanized antibody No. 144 (antibody, human IgG2)
heavy: QVQLVQSGSELKKPGASVKVSCKASGYTFTDYSMHWVRQAPGQGLEWMGWINTETGEPTYADDFKGRFVFSLDTSVSTAYLQISSLKAEDTAVYYCARIPLYYYGSRYWYFDVWGQGTTVTVSSASTKGPSVFPLAPSSRSTSESTAALGCLVKDYFPEPVTVSWNSGALTSGVHTFPAVLQSSGLYSLSSVVTVPSSNFGTQTYTCNVDHKPSNTKVDKTVERKSCVECPPCPAPPAAAPSVFLFPPKPKDTLMISRTPEVTCVVVDVSHEDPEVQFNWYVDGVEVHNAKTKPREEQFNSTFRVVSVLTVVHQDWLNGKEYKCKVSNKGLPAPIEKTISKTKGQPREPQVYTLPPSREEMTKNQVSLTCLVKGFYPSDIAVEWESNGQPENNYKTTPPMLDSDGSFFLYSKLTVDKSRWQQGNVFSCSVMHEALHNHYTQKSLSLSPG
light: DIQMTQSPSSLSASVGDRVTITCRASENIYRNLAWYQQKPGKAPQLLLYAATNLADGVPSRFSGSGSGTDYTLTISSLQPEDFATYYCQHFWGTPWTFGQGTKVEIKRTVAAPSVFIFPPSDEQLKSGTASVVCLLNNFYPREAKVQWKVDNALQSGNSQESVTEQDSKDSTYSLSSTLTLSKADYEKHKVYACEVTHQGLSSPVTKSFNRGEC
notes: human Ig kappa; also called L1-6/HK1
Turning to B4, the “A450 as % of hEphA4-SEAP-His” value in assay [1] worked out at 5.8%; in assay [2], 5.6%; in assay [3], 5.7%; in assay [4] it was 5.6%; in assay [5], 5.6%; in assay [6] it was 5.7%.
